Assay: protease stability score; higher = more stable; yeast display proteolysis, trypsin and chymotrypsin;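 also: log10 excess protease needed over predicted unfolded state with 0 meaning unfolded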

Compared with “EEKQDTRLEEFVSAVLKGDEQEAVDLADPNADMHIGEWHVRGREQIRKFIDQLRKRIRVQVDEMHVDNQGENVTVRATFVLDHNGVPMEFEIEYRLVVDNGRLKSVHARVPEEVKNRRRR”, “EEKQKTHVERFIEILREGDPQKAREMADKDAKFVYGDKSVHGMDEFRRQVERRNKQIHIDLKVREVDVHGNNVKIIIDAQEDHNGNPDSFKADMEVVYHNGRIKSASMDKQT” is lower in protease stability score: 0.294 for the first, 0.074 for the second.

Compared with “EENEVEKIMQVAHSGDFDSLVELADPNVTIKVGDKEWHGREHATEFFEKMKRHIDHVDVKSMSAQGDKITVRAHFNVNGDTLDFNLHIVISNGRIQSVKIQVTSHELRKTLTDQLG”, “EENNLELAHRVMENIQTNNPDEVVKQLDPNARIQVGDKVYHGREQARKMVEDLIDRLRVQIDSVDLEVQGDKAQLEFTQIEEHNGRPNSAKFIVDVTVHNGRVQNMEFREHK” is lower in protease stability score: 1.44 for the first, 0.891 for the second.

First: EEQAQENLENLIRAIEHGDHKTAKELMDPNVKFHYGDKQYHGRERVTDFIRTVHEQMDVEIESFDLKLENGRAKAKMTAVYDVNGKPVKISVTYVATVHNGKVKHLQRRVDPSQQREVKG
Second: EEQAVEVMNRYIRALQTGSKQDLRDNMDPNVKAIYGDSVIHGREEIARHLVKTMKDIRVENDVRDMRFDGDKIELRAKWVFEHDGRPRTNKYVVHAVAHDGKIKHINLQEDQ
The protease stability score of the first is higher: 1.02 for the first, -0.058 for the second.

Going from “EEQLKHRLRTYIEALQTGDEKKMVEMVDPNAHIRVGDSTIHGREELRKWVQHLQREIRFQVKIRSIDVSGEHLDVKAEVRYDFNGQPVRDTLNISAEASNGTFTDLRLHIDEDVLRKIKS” to “EEQVEELMHRIMTAIKTNNPDDLKRNIDPNAKIRIGDTVIHGMEEYVHQFEEEVKQLRIEIIDVQQDIKGDKVVVKIRFRRQHNGRPDETVTVFTAKMDNGKVKSLDFQEDG”, the protease stability score rises from 1.16 to 1.22.

First: EEQVRELLRKALEAKQEGDEKKLTKLFDPNAKVDVGDKTFHGMEDIARTIVTELKQIRVRLEIKHYSMRGDHLRVDAEVEEEHNGEPQTRRVIIYMHVQGDKITKQKIEDRQ
Second: EERANDAARRFLEAIDRNNPDEAVKNFDPNARFRYGDKTVTGRTEVQELLEHLLKQMRITIQSVRVDARGDKVTVHLTVVVDVNGQPERHEMTVIANIHNGRIKEMEVRVDPDEQRERKR
The protease stability score of the first is higher: 1.08 for the first, 0.575 for the second.

Compared with “EERDEAENAIRRFLEAVEEGDEDNLREQADPNAKFDVGDKTVHGMKSYARQQIEERERIDHVDYRISSVRLEGNRADVKVKFKARVDGRTKTATATINMQRHNGRMKIKEMKIN”, “EERDMEKMDTLVRDNDWKKMKNNVDPNAQVRIGEHEYTGKQQASTAFDILQKQVDHVDIHSFKNHGDQVEVHAILRYNGQNFQVNFRFRVHNGRFKKFSVEFTSEQQNKIMEEWLG” is lower in protease stability score: 0.018 for the first, -0.039 for the second.

First: EEREVEEMQKILQHGDPKEFEDNMDPNADVEIGDQQYRGRETIAQVLQKFRDQIDHRHIEEVHIHGDHAVIDVVATVNGQDLKYIIVVKVENGKLKSARLQATDPRVKHRMQEVYE
Second: EERLQELAERWWKARRTGDPHKIRDLLDKDVRVEYGNKSIHGRENIAHEIVRQLKHLRLDEKVERIDRSNGHVRATLSVTVNINGQPYTYRFELRIRAHNGKVKKIELRMPEEVVRRLDT
The protease stability score of the first is lower: 0.32 for the first, 1.73 for the second.

First: EERQQELAKTFMEAVQSNDTTQLKRMFDKHAKVTVGDKTVSGREDASKWLSKLHKESRVQLRDVKVEVSGNKIDIKVRFEVQHNGKPREVTREMEMTFHNGKIKDLRATRTE
Second: EERVNSVAEQFLDAVHTGDPNRVREQMDKDARMHVGDTTLHGRENMANHWKTLLDEMRITFHDYRIRVTGEEVEIRADVQYNHNGRPKRRVLTYTVEADNGKIHNWKVQEDS
The protease stability score of the first is lower: 0.394 for the first, 0.472 for the second.

Going from “EERVQKMLEDAMRTNDEVELIKSAPPNAKVVVGDKKIKGHEEAHRWAVRFKEQVDHTEIKHLDINGDKVSLDFSIVINGKKIRVVVKVTATNGKVREVHVQATSEDDQEQLKRDIK” to “EESAIERLKEAMKAFDHGDEDEWRQQFDKNARVQIGDKSVRGRDNMAKQIKKEKEKMRVEVKLESVHVHNGHVTADADYKEQKNGRPTSSRFQLHATFKGDKFKNMVWHKDS”, the protease stability score falls from 0.652 to -0.422.

Compared with “EESLEHIVRTMLEQIRRGDPRDLKEMFPENARIEYGDRSIHGREEYAKTMEHKRRQARYHFQVKSIRNNGNKVELVMEVEDNHNGNPSTRRVKLTIVFHNGRIQNVEQTNKP”, “EESLIRLATLFMRAMETGDPKQANDLVDPNARFKIGDSVINGRERFNEWLKDLKEEMSVHYRVEHMHAEGDRVEVDFVVVYNVDGRPQRMRVKLEADLSNGRMRNVTLRFPSEEEKKIKK” is lower in protease stability score: 1.03 for the first, 0.525 for the second.

Compared with “EESVIKRIHQLMESNDWDQLVRQMDEDAKVEIGNFRVEGREEAEDWARKVKKQVDHLEVEDIQIRGNKVEVTMNVQVNGKTVRFDLVMEVRNGRVTSMSARFRSEDDVKIMEEMLK”, “EHELERQASKFAQLLRTNDFEKLLEMFDENARIEVGDKFVQGRDRIKKKLERDKTEMNRRYEDIKFTANGNTLNIKVIFTENHNGKPKRTVQLILITFRNGRIKRVEVRDDG” is lower in protease stability score: 1.15 for the first, -0.065 for the second.

Compared with “EHENVRLARSLIDALQQNNPQQAQENADKDVQYEVGEKRIHGREQYSDTMRKNKEQMEFRVHSVDMDEHNGRVTVNLTFIESTNGDPKQDRANLVIEFHNGRIQHVRMSKDG”, “EHEQSKLMEHLLRIVETGDDDEFRKNADPNVKFVYGDKEYDGREEAAKALREIKTELRFQLNDVEIRVENGVIEINYDFTANHNGRPQRRTQRATAEYDNGKLKSWSVRDDG” is higher in protease stability score: -0.268 for the first, -0.172 for the second.

Going from “EKEAKTLAHHVMEALEKNDPDQMDEQLDENARVQVGDREVHGREEVNKQIKRLKKHAHFEIESVTLDVQGDKVDAQYTMRADVNGKPWRDHVTVEIHVRNGRIKELRFRMDPQRLRDFKK” to “EKEDLQQIARDMAKAVVSGDKEQMRRLADENARAQIGDKTLHGREKLSELIKRIRDRVDHLRLVDVRQDGDQIQVYVDLVVNGRKRRFTIEAEAHNGHIHSVTFDPRAKEFLDS”, the protease stability score rises from 0.72 to 1.79.

Going from “EKEEVKKAVEAFNENDEDELRDLVDENVKVVIGEKDYTGRETYWQFLRRMHEQIDHMHVKSVSVSNGVLRMDVEVVFNGRNVRFTIEVQAHDGQIKRVHYQARSEEQHKEFLKMLK” to “EKEIVNNFKDWVRALTTGDEDRLRNYADPNAQFVVGEKRFHGMDDYVEDMRRRRTEIRVEIRVHHMNSTGEKIEIHAEQTHEHNGKPETHEFKMKAEVHNGRHKSVTQHDDG”, the protease stability score falls from 1.58 to 0.201.

Going from “EKENVQSWLEAWNALRQGDEKRVEQLVDPNARMQVGDKKVEGMTRHVHKEVRKMKEIRVELDLKTVDTQGDHAVVKFRESRNHNGQPREQDVVVRMRAHNGRVQEVNVHEVS” to “EKEQKERLEEAQHARESGDTERLKDLFDENVQVEVGDKRVNGMEKFVKDEVKKQRDLRISVTYTEMRNDPNHVDITVEVVEDKNGEPQRRVLEINIEYENGRARMMRVRRVQ”, the protease stability score rises from 0.028 to 1.1.

First: EKEVMDTLVKIVNEGNFEDLAKMADKDVQVRIGNKNLHGKEQLQKFMERFTRQADHIRVHRYQFSNGRFQFDFVIVVNGKRFRVTMHVEVSNGRIKKLVINVTDEDAEKVLREAYG
Second: EKEVVELAERFIDALQTNNPDQAEENVDENVKFQYGDKSIKGRDTWNRELKKTLRDQRIQFRHVEIRSDGDKAHITAEFQVTHNGQPDKRRYKMTVEVRNGTIQRVTVQQHR
The protease stability score of the first is higher: 1.38 for the first, 0.17 for the second.

Compared with “EKHVMTRITQYERNVQNGDEDTLNEMVDKDAKINIGDKTWHGMHNAAKDWKRQKDEMRLDYRSIHVTVQGDTVRIDQVVAVERNGKPSHDRNVQIWHEDNGKVKQVEQHKRP”, “EKSIVEFFKKWVTAQRDGDPRQHARYIDPNARLQVGDRVVNGREQAKDDQHKKRKEIKVDMRIKSISASNGTLEVNFREKVDVNGRPITREYRFRFEVRNGRITSLSNQVDKEEQKKLKK” is higher in protease stability score: -0.216 for the first, 0.157 for the second.

Going from “ENHVMNNAEKYLRLLEKGDEEELVKMADPNAKFRIGDKHVHGMESFADDLFRKQKEIRMEINIKHYEVQGDHVTIKAEQEKQHDGRPRRDTNKIIMQVHNGKIKQVTFTSDG” to “EQDQIRRLKTFIKIIDHNNPSKVRELLDKDVHIDIGDKVIRGREEYADEIHKLQKEMRVKLQVDDIKDHGEHVHFTARWYARVNGRPRTNEIHVQARAHNGHVTSIKVHMDPRVLKEMRS”, the protease stability score rises from -0.222 to -0.027.

Compared with “EQELRKKATEMLKVVQEGDEDRLVEYADPNVRVQVGDKVLHGQEDLRKFVQRLTKESRIHLKHVDIEVHGNKIDITVEADVEHNGRPSTDTFSMRVEMENGRAKFIQVRTSK”, “EQEVVHLAHRFIEAVQHNSTEDANKNVDPNAKFRVGDHVVNGREEVNEKVRKDHEKIRLQIRSVTLEDQGDKVEIRMDVEFDVNGKPLHHNLKMTVEAHNGKIVQLDNQMDPTELKELKQ” is lower in protease stability score: 1.39 for the first, -0.152 for the second.

Going from “EQTFVHEFIKNVQRNNEHELKKLIDPNAKVVVGNKTFQGREQINSQLKRFKDQVDEFHVDTYHDKGDKAVIDYVRVVDGQRVHYRLIITAENGKVKSMELHVTDPEQQKTIERVLD” to “ERDSLKHVAREMEKNNFDEMLHNADKDVEIHYGNRSVHGHKRAQSFWERLKSRVDHISFKSYSINNGRIVMSFKVVIDGQDIEVHISIEVENGTIKHVQFQATSEEIEKLLEKLMD”, the protease stability score rises from 1.33 to 1.36.

Compared with “ERELVSIAQDILHALEHGDPQQFRDLVDPNAKFKVGDHEWHGRESAANEYAKEQRKMNNKYDRVTWDNNGDHIRARFNWVNHSNGEPKRKQATQELVLHNGRLVSMKQDDTQ”, “ERERNQKLAEIFAQAVETGDPEQAQKMAPPDVKAQVGDHQFRGREEIHKMIETIRRRADHARLKDMTVDGDKITIVVQFNVNGKEVNVVFHITVRNGVATEIELRSK” is higher in protease stability score: -0.052 for the first, 1.26 for the second.

Compared with “EREVVQEAAKAINSNDFRRLSELMDKDVKMQYGDKTLSGREEVETLLKSLHEQIDTFTVDHYHVEGNKAEVDARFHFNGKRLRMHLYAVAHNGRIQEMKIQATTEHQQEELSRLWR”, “ESELDKQAEQIVRVLRTGDPEKVADNAPEDAELIIGDKTYHGREQIRDWVHTVNKQMRIQWDEFDVKVKGDKAKVEADVVYDVNGTPVEDKIVLIFVIHNGRVHAVHFDFDPEVWRSMES” is lower in protease stability score: 0.613 for the first, 0.569 for the second.

First: ETEELHKMTELIDNMQRGNPQKFNEMVDPNAQFEVGDKTIRGREELSKELHRKRREMRRSLRSVKVRLSGNHFDIRVTFRETHNGQPDDRRQRIVIIVSNGRIKSVRVDEDG
Second: ETHVINRAIEAARHGDEDTLSKLADENAHVSVGDKEFHGREQVKNALKDWHDQVDTFEMKKVEVRGNKADVKIKVVVNGRDMTMRMEINAKGESIREINFSYRDERAKHHAQNAQG
The protease stability score of the first is lower: 0 for the first, 0.169 for the second.

First: KEEDIVKVAKKLAKIVEEGNPDELKKLLSPDLEVKYGDKERHGADELVKVLKKLLRKGVRIQVKELQVEGNTATTVLEYQHGDKKHDVEIKAKLTGGRLKKLEVRFSPKAQEIVTQG
Second: KEEDVEKVAKRLITLVQEGNVDVMRKYLAPDVEVQYGDVEVKGPDQVVKHVRDLRRQGYRVQLKEVQVEGNTAETVLDYQAGDQKYTATVKAQVKGGVLKRATVKASPEMKKVVKAG
The protease stability score of the first is higher: 2.02 for the first, 1.38 for the second.

Going from “KEETVETLWKQMVEAVQKNNEEQLKKLGKDDVKVEYGGKKYEGTEQMATQLKKFMDLGAKFELKRYKVEGNHVEADIQVHVGGKTVHVTVRVEYDGGKLKKVQVHVSEEAEEAYKKG” to “KEETVKTLWERMVEAVQKGDKEKVKKLGKDNVNARYNGKEYQGREELAKMLDKFKRKGAEFELKQVHVEGNTVKAEIEVHAAGTTQHVEVEAKYDGGQVEEVVVKISEEVQEMYKKG”, the protease stability score falls from 1.24 to 0.551.

Source: the NTF2 design screens of Basanta et al. (2020)
